In patent publication US20220025025A1 (IBEX BIOSCIENCES, published 2022):

Target: T1, filamin-A (human, UniProt P21333 2-2647)
T1 construct: whole, on cells; Endogenous filamin-A of human cell lines; No purified filamin-A was used; also called FLNA; FLNa
Experiment: flow cytometry, surface staining of SKNAS (human neuroblastoma) cells, 2 µg primary antibody
Procedure: B411 surface staining on several different cell types was conducted. Cells were plated at a concentration of 0.5-1.0 million cells per well, and incubated overnight. Cells were then lifted from the wells, washed, and resuspended in flow cytometry media with 2 μg of primary antibody for 1 hour on ice. Cells were washed and incubated with the secondary antibody (5 μg/ml) for 30 minutes on ice. Cells were washed again and analyzed by flow cytometry.

T1 sequence (P21333 2-2647): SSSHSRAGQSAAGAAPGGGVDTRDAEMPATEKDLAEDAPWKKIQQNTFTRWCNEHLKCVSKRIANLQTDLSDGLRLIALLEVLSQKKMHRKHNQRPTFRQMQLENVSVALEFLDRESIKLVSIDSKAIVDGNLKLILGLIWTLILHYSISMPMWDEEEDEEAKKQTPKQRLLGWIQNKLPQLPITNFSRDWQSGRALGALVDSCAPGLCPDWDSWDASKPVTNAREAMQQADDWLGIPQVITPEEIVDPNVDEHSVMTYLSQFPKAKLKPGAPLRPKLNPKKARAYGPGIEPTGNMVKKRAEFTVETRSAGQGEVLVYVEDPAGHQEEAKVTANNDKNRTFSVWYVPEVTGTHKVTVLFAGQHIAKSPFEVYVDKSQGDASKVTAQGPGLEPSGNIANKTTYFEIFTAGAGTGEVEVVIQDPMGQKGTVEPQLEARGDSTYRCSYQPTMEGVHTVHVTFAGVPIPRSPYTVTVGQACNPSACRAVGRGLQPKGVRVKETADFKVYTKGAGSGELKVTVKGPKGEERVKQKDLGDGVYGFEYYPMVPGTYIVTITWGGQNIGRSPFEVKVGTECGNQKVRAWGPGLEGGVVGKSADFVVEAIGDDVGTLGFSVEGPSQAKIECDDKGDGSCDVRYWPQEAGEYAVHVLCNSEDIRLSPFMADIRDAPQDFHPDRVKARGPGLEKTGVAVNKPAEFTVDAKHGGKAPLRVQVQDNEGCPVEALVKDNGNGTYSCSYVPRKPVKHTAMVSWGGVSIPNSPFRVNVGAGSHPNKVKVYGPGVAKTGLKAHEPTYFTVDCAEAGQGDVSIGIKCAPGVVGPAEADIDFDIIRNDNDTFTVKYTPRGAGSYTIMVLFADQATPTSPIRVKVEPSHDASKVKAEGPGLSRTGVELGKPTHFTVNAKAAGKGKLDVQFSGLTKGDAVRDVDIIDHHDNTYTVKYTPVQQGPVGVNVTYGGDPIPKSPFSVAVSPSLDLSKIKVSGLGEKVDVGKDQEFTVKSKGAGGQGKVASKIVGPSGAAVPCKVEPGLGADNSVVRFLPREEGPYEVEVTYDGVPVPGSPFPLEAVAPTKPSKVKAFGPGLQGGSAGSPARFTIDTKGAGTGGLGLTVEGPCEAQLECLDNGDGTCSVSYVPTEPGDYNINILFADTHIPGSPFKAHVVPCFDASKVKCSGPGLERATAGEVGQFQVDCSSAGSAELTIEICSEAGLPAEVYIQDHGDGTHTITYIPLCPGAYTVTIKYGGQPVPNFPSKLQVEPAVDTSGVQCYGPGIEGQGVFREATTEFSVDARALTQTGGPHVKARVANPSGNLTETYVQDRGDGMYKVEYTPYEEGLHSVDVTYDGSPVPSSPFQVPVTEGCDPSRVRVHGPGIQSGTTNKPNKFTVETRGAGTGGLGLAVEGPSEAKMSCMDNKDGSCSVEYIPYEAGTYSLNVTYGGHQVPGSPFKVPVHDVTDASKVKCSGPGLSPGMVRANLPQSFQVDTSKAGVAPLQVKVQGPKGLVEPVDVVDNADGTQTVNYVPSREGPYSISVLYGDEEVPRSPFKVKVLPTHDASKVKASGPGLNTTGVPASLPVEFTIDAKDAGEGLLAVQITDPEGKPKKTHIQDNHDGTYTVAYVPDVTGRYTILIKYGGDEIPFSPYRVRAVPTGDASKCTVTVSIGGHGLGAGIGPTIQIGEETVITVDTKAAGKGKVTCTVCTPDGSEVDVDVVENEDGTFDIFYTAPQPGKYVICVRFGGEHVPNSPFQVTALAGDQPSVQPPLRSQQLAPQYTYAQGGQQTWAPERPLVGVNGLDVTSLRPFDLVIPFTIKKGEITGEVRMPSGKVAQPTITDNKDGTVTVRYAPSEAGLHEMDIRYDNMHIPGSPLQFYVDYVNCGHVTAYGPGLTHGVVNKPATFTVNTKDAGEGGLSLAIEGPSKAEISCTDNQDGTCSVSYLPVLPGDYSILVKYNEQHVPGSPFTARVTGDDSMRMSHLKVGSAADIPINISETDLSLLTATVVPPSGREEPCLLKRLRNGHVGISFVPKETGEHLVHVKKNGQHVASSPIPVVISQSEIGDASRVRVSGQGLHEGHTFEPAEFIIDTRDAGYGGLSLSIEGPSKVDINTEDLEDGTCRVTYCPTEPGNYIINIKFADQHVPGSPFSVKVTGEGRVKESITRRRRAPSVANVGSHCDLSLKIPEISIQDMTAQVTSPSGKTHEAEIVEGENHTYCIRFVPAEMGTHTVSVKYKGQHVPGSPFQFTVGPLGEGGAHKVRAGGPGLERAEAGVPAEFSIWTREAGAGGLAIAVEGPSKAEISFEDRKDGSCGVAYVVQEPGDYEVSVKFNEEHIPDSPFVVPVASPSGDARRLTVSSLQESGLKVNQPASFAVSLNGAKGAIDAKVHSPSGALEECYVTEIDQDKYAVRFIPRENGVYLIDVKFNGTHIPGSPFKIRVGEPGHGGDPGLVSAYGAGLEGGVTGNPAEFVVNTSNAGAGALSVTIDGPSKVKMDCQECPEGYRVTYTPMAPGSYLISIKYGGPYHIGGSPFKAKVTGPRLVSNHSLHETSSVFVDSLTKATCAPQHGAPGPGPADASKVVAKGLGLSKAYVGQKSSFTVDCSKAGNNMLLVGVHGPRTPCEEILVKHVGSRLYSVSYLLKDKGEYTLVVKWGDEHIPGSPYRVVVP

binding result: binds
B1: anti-filamin-A antibody B411 (antibody, human IgG1, kappa, V domains shown)
VH: EVKLVESGGGLVQPGGSLKLSCAASGFTFSSYTMSWVRQTPEKRLEWVAYISNGGGSTYYPDTVKGRFTISRDNAKNTLYLQMSSLKSEDTAMYYCASDGIIRPFAYWGQGTLVTVSA
VL: DIVMTQSHKFMSTSVGDRVSITCKASQDVSLDVAWYQQKPGQSPKLLIYSASHRYTGVPDRFTGSGSGTDFTFTISGVQAEDLAVYFCQQHYSTPLTFGAGTKLELKR
notes: also called B4111
